# Laboratory results as given in patent publication US20250122306A1 (SUTRO BIOPHARMA, published 2025).
# Changes are numbered by the printed parent chain.
# T1: cynomolgus tissue factor (cynomolgus TF, Sino Bio #90885-C08H) (cynomolgus monkey, UniProt P13726 33-251 (human entry))
# T1 construct: bought recombinant antigen; also called cyno TF
# T1 chain: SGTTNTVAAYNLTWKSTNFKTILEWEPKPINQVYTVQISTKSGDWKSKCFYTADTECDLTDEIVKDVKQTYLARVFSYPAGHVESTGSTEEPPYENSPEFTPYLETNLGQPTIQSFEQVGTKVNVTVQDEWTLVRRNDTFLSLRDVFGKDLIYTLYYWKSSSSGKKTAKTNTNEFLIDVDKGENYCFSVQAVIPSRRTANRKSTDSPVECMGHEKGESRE
# T2: cynomolgus tissue factor on HEK293T-cynoTF cells (cynomolgus monkey, UniProt P13726 33-294 (human entry))
# T2 construct: stably transfected HEK293T cells
# T2 chain: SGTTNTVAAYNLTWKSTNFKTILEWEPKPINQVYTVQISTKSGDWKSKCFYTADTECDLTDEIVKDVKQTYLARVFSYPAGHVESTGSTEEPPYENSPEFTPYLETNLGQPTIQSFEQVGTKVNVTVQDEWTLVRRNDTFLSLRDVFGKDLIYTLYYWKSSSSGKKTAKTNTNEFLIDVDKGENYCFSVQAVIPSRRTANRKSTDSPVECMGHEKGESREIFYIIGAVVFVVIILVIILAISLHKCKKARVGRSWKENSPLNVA
# B1: SRP2799-B03 (antibody, IgG1, V domains shown)
# VH: EVQLVESGGGLVQPGGSLRLSCAASGFNISDYWIHWVRQAPGKGLEWVGFIDPYNGYTNYADSVKGRFTISADTSKNTAYLQMNSLRAEDTAVYYCARGYGSWPDYLDYWGQGTLVTVSS
# VL: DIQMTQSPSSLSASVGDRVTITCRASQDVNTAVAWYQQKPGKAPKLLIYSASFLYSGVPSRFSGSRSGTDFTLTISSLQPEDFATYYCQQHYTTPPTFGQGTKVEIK
# notes: also called SRP2799-B03 (parent)
# B2: SRP2799-B06 (antibody, IgG1, V domains shown)
# VH: EVQLVESGGGLVQPGGSLRLSCAASGFNISDYNIHWVRQAPGKGLEWVGYIDPSNGYTYYADSVKGRFTISADTSKNTAYLQMNSLRAEDTAVYYCARDDQSVSSPFDYWGQGTLVTVSS
# VL: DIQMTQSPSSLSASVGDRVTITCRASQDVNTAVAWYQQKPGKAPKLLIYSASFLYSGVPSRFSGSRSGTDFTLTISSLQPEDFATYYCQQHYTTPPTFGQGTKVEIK
# notes: also called SRP2799-B06 (parent)
# B3: 2842-B01 HC1/LC1 (antibody, V domains shown)
# VH: QVQVVESGGGLVKPGGSLRLSCAASGFSISSYDMSWIRQAPGKGLEWIGIIGSNGRTYYADSVKGRFTISRNTNENTVYLQMNSLRAEDTAVYYCARGLYDGTGNIWGQGTLVTVSS
# VL: DLQMTQSPSSLSASVGDRVTITCRASQSVYGNNWLSWYQQKPGKAPKLLIYGASKLASGVPSRFSGSGSGTQFTLTISSLQPEDFATYYCQGTYYSGDWYFAFGQGTKVEIK
# notes: humanized rabbit antibody, variable regions fused to human IGHG1 and IGKC
# B4: SRP2799-A05 (antibody, IgG1, V domains shown)
# VH: EVQLVESGGGLVQPGGSLRLSCAASGFNISSYWIHWVRQAPGKGLEWVGYIDPYSGSTYYADSVKGRFTISADTSKNTAYLQMNSLRAEDTAVYYCARSDYYYVDEYMDYWGQGTLVTVSS
# VL: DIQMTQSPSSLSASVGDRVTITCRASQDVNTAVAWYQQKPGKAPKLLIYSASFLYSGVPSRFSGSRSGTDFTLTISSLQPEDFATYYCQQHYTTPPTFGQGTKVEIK
# notes: also called SRP2799-A05 (parent)
# B5: mAb 48: aTF_2842-B01_HC1_Y180/F404TAG; aTF_2842-B01_LC3 (antibody, IgG1, V domains shown)
# VH: B3 VH
# VL: DIQMTQSPSSLSASVGDRVTITCQASQSVYGNNWLSWYQQKPGKAPKLLIYGASKLASGVPSRFSGSGSGTDFTLTISSLQPEDFATYYCQGTYYSGDWYFAFGGGTKVEIKR
# modifications: non-natural amino acid (pAMF) at TAG sites Y180 and F404 (EU), * in the sequence
# notes: unconjugated full-length IgG1/kappa; also called 2842-B01 HC1/LC3
# B6: mAb 47: aTF_2842-B01_HC3_Y180/F404TAG; aTF_2842-B01_LC1 (antibody, IgG1, V domains shown)
# VH: B3 VH with Q1E, V4L, K13Q, I37V, A60P, N72D, T73N, N74S, E75K, Y79T
# VL: B5 VL with I2L, Q24R, D72Q, G105Q
# modifications: non-natural amino acid (pAMF) at TAG sites Y180 and F404 (EU), * in the sequence
# notes: unconjugated full-length IgG1/kappa; also called 2842-B01 HC3/LC1
# B7: mAb 46: aTF_2900-H09_HC_Y180/F404TAG_SerOpt; Trastuzumab LC SerOpt (antibody, human IgG1, kappa, V domains shown)
# VH: B2 VH with N28T, N33V, V103I, F107L
# VL: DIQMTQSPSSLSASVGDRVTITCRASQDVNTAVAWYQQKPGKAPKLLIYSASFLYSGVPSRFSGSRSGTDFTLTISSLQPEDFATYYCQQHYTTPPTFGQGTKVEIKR
# modifications: non-natural amino acid (pAMF) at TAG sites Y180 and F404 (EU), * in the sequence
# notes: unconjugated full-length IgG1/kappa
# B8: mAb 42: aTF_2900-C11_HC_Y180/F404TAG_SerOpt; Trastuzumab LC SerOpt (antibody, human IgG1, kappa, V domains shown)
# VH: B1 VH with N28T, D31Q, F50Y, N59Y, G99D, P104R, D105I, Y106R
# VL: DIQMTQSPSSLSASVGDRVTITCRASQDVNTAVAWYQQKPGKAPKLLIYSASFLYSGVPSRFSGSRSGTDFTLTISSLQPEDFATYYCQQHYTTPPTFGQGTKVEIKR
# modifications: non-natural amino acid (pAMF) at TAG sites Y180 and F404 (EU), * in the sequence
# notes: as for B7
# B9: mAb 43: aTF_2900-F06_HC_Y180/F404TAG_SerOpt; Trastuzumab LC SerOpt (antibody, human IgG1, kappa, V domains shown)
# VH: B2 VH with N28T, D31I, N33T, F68L, D100P, V103I
# VL: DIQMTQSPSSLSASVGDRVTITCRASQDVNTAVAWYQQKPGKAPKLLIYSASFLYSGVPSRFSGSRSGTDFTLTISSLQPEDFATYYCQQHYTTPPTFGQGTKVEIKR
# modifications: non-natural amino acid (pAMF) at TAG sites Y180 and F404 (EU), * in the sequence
# notes: as for B7
# B10: mAb 45: aTF_2900-H06_HC_Y180/F404TAG_SerOpt; Trastuzumab LC SerOpt (antibody, human IgG1, kappa, V domains shown)
# VH: B2 VH with N28T, S30A, D31A, N33I, V103F
# VL: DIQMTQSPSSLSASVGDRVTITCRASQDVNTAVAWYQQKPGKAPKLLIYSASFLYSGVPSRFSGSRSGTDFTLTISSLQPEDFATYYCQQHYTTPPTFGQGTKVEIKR
# modifications: non-natural amino acid (pAMF) at TAG sites Y180 and F404 (EU), * in the sequence
# notes: as for B7
# B11: mAb 44: aTF_2900-F09_HC_Y180/F404TAG_SerOpt; Trastuzumab LC SerOpt (antibody, human IgG1, kappa, V domains shown)
# VH: B2 VH with N28T, S30H, N33V, V103I, F107L
# VL: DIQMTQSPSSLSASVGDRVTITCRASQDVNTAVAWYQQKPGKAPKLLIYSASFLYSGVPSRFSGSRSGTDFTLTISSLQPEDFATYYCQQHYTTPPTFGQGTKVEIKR
# modifications: non-natural amino acid (pAMF) at TAG sites Y180 and F404 (EU), * in the sequence
# notes: as for B7
# B12: mAb 49: aTF_2842-G04_HC2_Y180/F404TAG; aTF_2842-G04_LC2 (antibody, IgG1, V domains shown)
# VH: QVQVQESGPGLVKPPGTLSLTCAVSGFSLSYYGVSWVRQPPGKGLEWIGTIDSSGRTYYNPSLKSRVTISNDNAPNTVSLKLSSVTAADTAVYYCARDFYGWNSGALDIWGQGTLVTVSS
# VL: DLQLTQSPSTLSASVGDRVTITCRASQSVYSNKYLSWYQQKPGKAPKLLIYKASTLASGVPSRFSGSGSGTEFTLTISSLQPDDFATYYCAAAYSDDSDTAFGQGTKVEIKR
# modifications: non-natural amino acid (pAMF) at TAG sites Y180 and F404 (EU), * in the sequence
# notes: unconjugated full-length IgG1/kappa; also called 2842-G04 HC2/LC2
# Molecular target: T1, cynomolgus tissue factor (cynomolgus …)
# Test: Biacore SPR, single-point off-rate (100 nM antigen), antibody captured on anti-Fc
# Procedure: (§1) Anti-Fc polyclonal antibodies were immobilized onto a CM4 chip (Cytiva #BR100534) using amine coupling chemistry (Human Antibody Capture Kit, Cytiva #BR100839). The immobilization steps were carried out at a flow rate of 25 μL/min in 1×HBS-EP+buffer (Cytiva #BR100669). The sensor surfaces were activated for 7 min with a mixture of N-hydroxysuccinimide (NHS, 0.05 M) and 1-ethyl-3-(3-dimethylaminopropyl)-carbodiimide (EDC, 0.2 M). The anti-Fc polyclonal antibodies were injected over all 4 flow cells at a concentration of 25 μg/mL in 10 mM sodium acetate, pH 4.5, for 7 min. Ethanolamine (1 M, pH 8.5) was injected for 7 min to block any remaining activated groups.
# (§2) Off-rate and kinetic binding experiments were performed at 25° C. using 1×HBS-EP+buffer. Antibodies were injected over the anti-Fc surface at a concentration of 3 μg/mL for 12 seconds at a flow rate of 10 μL/min on flow cells 2, 3 and 4, followed by a buffer wash for 30 seconds at the same flow rate. Single point off-rate analysis was carried out using an antigen concentration of 100 nM. […] After capturing ligand (antibody) on the anti-Fc surface, the analyte (human TF, Lake Pharma; cynomolgus TF, Sino Bio #90885-C08H; mouse TF, R&D Systems #3178-PA) was bound for 180 seconds, followed by a 420 second dissociation phase at a flow rate of […]. Between each ligand capture and analyte binding cycle, regeneration was carried out using 2 injections of 10 mM glycine pH 2.0 for 30 seconds at 30 μL/min, followed by a 30 second buffer wash step.
row,Binder,koff [s⁻¹]
1,B1,0.00169
2,B2,0.00166
3,B3,0.00352
4,B4,0.0337

# Molecular target: T3, human tissue factor (human TF, Lake Pharma) (human, UniProt P13726 33-251, limits assumed)
# T3 construct: bought recombinant antigen; also called CD142
# Test: as above
# Procedure: as §1, §2
row,Binder,koff [s⁻¹]
1,B1,0.00415
2,B2,0.00827
3,B3,0.000727
4,B4,0.00304

# Molecular target: T4, tissue factor reagent of the Tissue Factor Activity Assay Kit (Abcam #ab108906) (UniProt P13726 33-295, limits assumed)
# Test: cell-based or functional assay
row,Binder,"FX conversion (% inhibition), 1000 nM antibody [%]"
1,B1,2.41
2,B2,-1.01
3,B4,1.12

# Molecular target: T5, human tissue factor on cells (human, UniProt P13726 33-295)
# T5 construct: cell-surface TF, transfected (HEK293T-humanTF) or endogenous (tumour lines, keratinocytes); the cell line is named under assay; also called HEK293T-humanTF; TF on BxPC3, primary human keratinocytes, NCI-H292, HCC1954, NCI-H1975
# Test: flow cytometry on HEK293T-humanTF cells, one-site fit of MFI
# Text: (§3) HEK293T, BxPC3 cells (TF positive) and NCI-H1703 (TF negative) cells were obtained from ATCC (American Type Culture Collection) and maintained in DMEM: F12 (1:1), high glucose (Corning) supplemented with 10% heat-inactivated fetal bovine serum (ThermoScientific), 1× Penicillin/Streptomycin (Corning) and 2 mmol glutamax (Thermo Fisher Scientific). To generate cells that stably expressing human tissue factor (HEK293T-humanTF) or cynomolgus tissue factor (HEK293T-cynoTF), HEK293T cells were transfected with plasmid vectors that contain the corresponding protein sequence and stable clones were selected with puromycin.
# (§4) For a fluorescence-activated cell sorting (FACS) cell-binding assay, cells were collected by Accutase and counted by the Vi-CELL Cell Viability Analyzersharvested and, then re-suspended in FACS buffer (DPBS buffer supplemented with 1% bovine serum albumin). A total of 200,000 cells in 100 μL were incubated on ice with 100 μL of anti-TF antibodies in each well of a 96-well plate. Cells were washed twice with ice-cold FACS buffer and then incubated on ice for 60 mins with 5 μg/mL Alexa 647-labeled donkey anti-human Fc antibody (Jackson ImmunoResearch). Unstained cells and cells stained with secondary antibody alone were used as controls. Cells were washed twice with FACS buffer and analyzed using a BD FACS Canto system. Geometric mean fluorescence intensities (MFI) were fitted using non-linear regression analysis with one site specific binding equation on GraphPad Prism (GraphPad Software; La Jolla, CA).
Binder,Bmax (MFI),Kd [nM]
B5,318000,2.3
B6,351000,3.3
B7,300000,0.93
B8,275000,0.8
B9,253000,1.7
B10,302000,1.3
B11,296000,0.9
B12,244000,1.4

# Molecular target: T5, human tissue factor on cells
# Test: flow cytometry on BxPC3 cells (TF positive), one-site fit of MFI
# Text: as §3, §4
Binder,Bmax (MFI),Kd [nM]
B1,45400,4.7
B2,46300,4.1
B4,52700,26.1

# Molecular target: T1, cynomolgus tissue factor (cynomolgus …)
# Test: Biacore SPR kinetics, antibody captured on anti-Fc, 1:1 Langmuir fit
# Procedure: as §1, §2
# (§5) The data were fit with the Biacore T200 Evaluation software, using a 1:1 Langmuir binding model. KD (affinity, nM) was determined as a ratio of the kinetic rate constants calculated from the fits of the association and dissociation phases.
Binder,Kd [nM],koff [s⁻¹],kon [M⁻¹ s⁻¹]
B5,60.7,0.00735,121000
B6,20.1,0.00166,82700
B7,41.6,0.00681,164000
B8,24.2,0.00309,128000
B9,7.33,0.00231,316000
B10,0.255,0.000309,1.21e+06
B11,18.9,0.00309,164000
B12,29.9,0.00241,80800

# Molecular target: T3, human tissue factor (human TF, Lake …)
# Test: as above
# Procedure: as §1, §2, §5
Binder,Kd [nM],koff [s⁻¹],kon [M⁻¹ s⁻¹]
B5,17.4,0.00124,71200
B6,7.81,0.000422,54000
B7,6.24,0.00226,362000
B8,3.59,0.000674,188000
B9,19.1,0.00594,311000
B10,7.78,0.00426,547000
B11,5.42,0.00196,362000
B12,13.8,0.000865,62500

# Molecular target: T4, tissue factor reagent of the Tissue …
# Test: cell-based or functional assay
# Remark: another data set of the same source
row,Binder,"FX conversion (% inhibition), 1000 nM antibody [%]"
1,B3,-0.45

# Molecular target: T2, cynomolgus tissue factor on …
# Test: flow cytometry on HEK293T-cynoTF cells, one-site fit of MFI
# Text: as §3, §4
Binder,Bmax (MFI),Kd [nM]
B5,486000,3.4
B6,501000,3.2
B7,483000,38
B8,426000,16
B9,419000,21
B10,441000,7.5
B11,429000,29
B12,465000,5.1
